Results as given in paper PMC5043372 (2016).
Non-standard residues stand in square brackets, D forms with d. No end group written: not given here. pY = N[C@@H](Cc1ccc(OP(=O)(O)O)cc1)C(=O)O

T1: SH2 domain of Monosiga brevicollis crka1 (Monosiga brevicollis, UniProt A0A1C9VNP8 1-97)
T1 chain: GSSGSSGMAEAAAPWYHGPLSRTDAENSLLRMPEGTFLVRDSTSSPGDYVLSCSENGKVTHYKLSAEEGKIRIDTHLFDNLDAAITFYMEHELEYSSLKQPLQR


Assays:
Experiment in all cases: ITC
SH2 domain of human CRK [1] = molecular target: T2, SH2 domain of human CRK (human, UniProt P46108 13-118)
SH2 domain of human CRKL [2] = molecular target: T3, SH2 domain of human CRKL (human, UniProt P46109 14-102)
[3] = molecular target: T1, SH2 domain of Monosiga brevicollis crka1
SH2 domain of human CRK [4] = molecular target: T2, SH2 domain of human CRK; remark: listed apart in the source
SH2 domain of human CRKL [5] = molecular target: T3, SH2 domain of human CRKL; remark: listed apart in the source
[6] = molecular target: T1, SH2 domain of Monosiga brevicollis crka1

T3 sequence (P46109 other isoform, or with tags, fused parts or gaps): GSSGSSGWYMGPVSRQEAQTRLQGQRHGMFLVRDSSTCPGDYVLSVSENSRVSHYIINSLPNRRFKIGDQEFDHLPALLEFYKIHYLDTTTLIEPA
T2 sequence (P46108 other isoform, or with tags, fused parts or gaps): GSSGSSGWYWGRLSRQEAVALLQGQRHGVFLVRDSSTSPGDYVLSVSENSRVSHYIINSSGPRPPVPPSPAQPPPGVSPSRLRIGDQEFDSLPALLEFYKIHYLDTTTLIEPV

Binder	Kd (SH2 domain of human CRK [1]) [µM]	also measured
AE[pY]QVPTS [Dok7 (Y396) peptide AE-pYQVP-TS]	0.427	Kd (SH2 domain of human CRKL [2]): 0.654 µM; Kd [3]: 42.9 µM
SR[pY]QQPFE [PLCG1 Y1253 peptide SR-pYQQP-FE]	6.45	Kd (SH2 domain of human CRKL [2]): 9.8 µM
DL[pY]QVPPG [Bcar1 Y169]		Ka (SH2 domain of human CRK [4]): 460000 M⁻¹
SN[pY]MAPYD [PDGFRB Y771 peptide SN-pYMAP-YD]	25.1	
DL[pY]QVPPG [p130Cas (Bcar1) Y169 peptide DL-pYQVP-PG]	2.17	
GP[pY]AQPSV [CRK Y221 peptide GP-pYAQP-SV]	10.2	
DL[pY]DVPPG [p130Cas (Bcar1) Y376 peptide DL-pYDVP-PG]	4.83	
QQ[pY]SSPGL [EPHB6 Y635 peptide QQ-pYSSP-GL]	5.21	
EV[pY]DTPPM [p130Cas (Bcar1) Y271 peptide EV-pYDTP-PM]	1.07	
SV[pY]DVPPS [p130Cas (Bcar1) Y310 peptide SV-pYDVP-PS]	0.649	
AE[pY]QVPTS [Dok7 Y396]		Ka (SH2 domain of human CRK [4]): 2.34e+06 M⁻¹; Ka (SH2 domain of human CRKL [5]): 1.53e+06 M⁻¹; Ka [6]: 23300 M⁻¹
DE[pY]DTPRH [phosphotyrosyl peptide from M. musculus Bcar1 (p130Cas, Y238)]	0.127	Kd (SH2 domain of human CRKL [2]): 0.368 µM; Kd [3]: 10.1 µM
PN[pY]MFPSQ [ROR1 Y789 peptide PN-pYMFP-SQ]	8.85	
HH[pY]DTPRS [phosphotyrosyl peptide from M. musculus Dok7 (Y406)]	0.0602	Ka (SH2 domain of human CRKL [5]): 9.16e+06 M⁻¹; Ka [6]: 116000 M⁻¹; Kd (SH2 domain of human CRKL [2]): 0.109 µM; Kd [3]: 8.62 µM
HV[pY]SFPNK [paxillin (PXN) Y118 peptide HV-pYSFP-NK]	2.48	
PH[pY]FVLTS [PLCG1 Y509 peptide PH-pYFVL-TS]	8.93	
SL[pY]DRPAS [PDGFRA Y762 peptide SL-pYDRP-AS]	0.98	
SV[pY]ESPYS [ZAP70 Y315 peptide SV-pYESP-YS]	4.44	
DV[pY]DVPPS [p130Cas (Bcar1) Y291 peptide DV-pYDVP-PS]	0.455	Kd (SH2 domain of human CRKL [2]): 1.06 µM
DM[pY]DVPRN [phosphopeptide DM-pYDVP-RN of S. rosetta PTSG_05573]		Kd [3]: 61.7 µM
LN[pY]ENLPS [FRS2 Y349 peptide LN-pYENL-PS]		Kd [3]: 126 µM
EM[pY]DVPRS [phosphopeptide EM-pYDVP-RS of S. rosetta PTSG_05573]		Kd [3]: 118 µM
